The values that follow come from publication doi:10.1101/2025.05.22.655130v1.

Changes are numbered by the printed parent chain. Names and notes keep the numbering of the source.

First the molecules themselves.
B1: β-glucosidase B (BglB) (Paenibacillus polymyxa; L339M) (protein)
chain: MSENTFIFPATFMWGTSTSSYQIEGGTDEGGRTPSIWDTFCQIPGKVIGGDCGDVACDHFHHFKEDVQLMKQLGFLHYRFSVAWPRIMPAAGIINEEGLLFYEHLLDEIELAGLIPMLTLYHWDLPQWIEDEGGWTQRETIQHFKTYASVIMDRFGERINWWNTINEPYCASILGYGTGEHAPGHENWREAFTAAHHILMCHGIASNLHKEKGLTGKIGITLNMEHVDAASERPEDVAAAIRRDGFINRWFAEPLFNGKYPEDMVEWYGTYLNGLDFVQPGDMELIQQPGDFLGINYYTRSIIRSTNDASLLQVEQVHMEEPVTDMGWEIHPESFYKLMTRIEKDFSKGLPILITENGAAMRDELVNGQIEDTGRHGYIEEHLKACHRFIEEGGQLKGYFVWSFLDNFEWAWGYSKRFGIVHINYETQERTPKQSALWFKQMMAKNGF
B2: β-glucosidase B (BglB) (Paenibacillus polymyxa; D38W) (protein)
chain: B1 chain with D38W, M339L
B3: β-glucosidase B (BglB) (Paenibacillus polymyxa; D38E) (protein)
chain: B1 chain with D38E, M339L
B4: β-glucosidase B (BglB) (Paenibacillus polymyxa; L339H) (protein)
chain: B1 chain with M339H
B5: β-glucosidase B (BglB) (Paenibacillus polymyxa; L339S) (protein)
chain: B1 chain with M339S
B6: β-glucosidase B (BglB) (Paenibacillus polymyxa; L339A) (protein)
chain: B1 chain with M339A

Substrate in the series: O=[N+]([O-])c1ccc(O[C@@H]2O[C@H](CO)[C@@H](O)[C@H](O)[C@H]2O)cc1
As to the kind of experiment: purified protein. The class given is biochemical, Paenibacillus polymyxa. The following applies: 0.11-100 mM substrate, readings every minute for 15 min; triplicate.
The Km is the concentration of substrate that gives half-maximal velocity. For orientation: kcat means the maximal rate divided by the concentration of active sites. As for B1, the Km was determined as 4.72 ± 0.82 mM and the kcat worked out at 395 ± 18.1 min⁻¹.
For B2 the same measures were 2.80 ± 0.55 mM and 13.0 ± 0.60 min⁻¹.
In the same order, the values of B3 are 2.72 ± 0.31 mM and 16.3 ± 0.40 min⁻¹.
In the same order, the values of B4 are 3.55 ± 0.26 mM and 675 ± 13.3 min⁻¹.
B5: the Michaelis-Menten constant (Km) is given as 4.44 ± 0.62 mM and the kcat stood at 572 ± 20.9 min⁻¹.
In the same order, the values of B6 are 24.3 ± 1.65 mM and 568 ± 14.9 min⁻¹.
